Each block holds one molecule with its values, some of them ahead of it. Non-standard residues stand in square brackets, D forms with d. Phe(4-N3) = [N-]=[N+]=Nc1ccc(C[C@H](N)C(=O)O)cc1
Key:
[1] = molecular target: αvβ3 integrin (Homo sapiens, UniProt P05106+P06756); test: SPR of crosslinked and native pAzF diblock constructs; type: binding; conditions: crosslinked UAA5-40-based constructs
Procedure: (§1) Though we were interested in the downstream effects of the treatment with crosslinked nanoparticles, we also wanted to investigate how chemical crosslinking affected the binding to the cell membrane receptors themselves. For this, the binding affinities of crosslinked and native diblock architectures were evaluated using surface plasmon resonance (SPR).
To characterize the integrin-targeting constructs, we started by determining the KD values of the UAA5-40-based constructs. […] A closer look at the SPR sensograms describes the mechanism for this effect where the main reason for the increased KD for the ligands is a result of vastly different association rates (kon) rather than differences in koff.

[2] = molecular target: DR5 (Homo sapiens, UniProt O14763); test: SPR of DR5-targeting UAA5-40 constructs; type: binding; conditions: native construct, same concentration range
Procedure: as §1
This extremely good binding constant can be mainly attributed to the koff rate which is so low that it is most probably even below the limit of detection of the SPR instrument. As opposed to the integrin-targeting UAA5-40 particles, we however also observed very strong binding for the native Tn3 construct in the same concentration range (FIG. 53B). […] Principally, this was not a too unexpected result since we already knew that apoptosis induction via DR5-binding required downstream trimerization of the ligand-bound DR5 receptors in the cell membrane. Therefore, we had expected that the reported multivalency requirement for Tn3-action was at least partly stemming from this mechanistic effect rather than the DR5-binding itself.

[3] = DLS of native and crosslinked pAzF diblock constructs in PBS and GuHCl; type: physicochemical
Excerpt: We wanted to thoroughly investigate the effects of pAzF-introduction as well as nanoparticle crosslinking on nanoparticle self-assembly. For this, we started by characterizing solely our five different ELP/RLP diblock architectures without any C-terminal functionalization. After expression and purification of the diblock constructs using ITC, the pAzF-containing constructs were crosslinked in solution by exposure to UV irradiation and characterized using dynamic light scattering (DLS). […] Generally, both processes seem to have increased the measured radii with this effect being more pronounced for the worm-forming constructs.
Apart from changes in nanoparticle morphology we were particularly interested in the effect pAzF-crosslinking had on their stability. […] GuHCl is a well-known denaturing agent that disrupts any inter- and intramolecular electrostatic forces and completely breaks down the quaternary, tertiary and secondary structure of most known proteins. Covalent bonds—such as the ones formed by pAzF-crosslinking—however remain unaffected by GuHCl, thus, the addition of this denaturing agent was expected to give us insights on the stability of our crosslinked nanoparticles. […] All native samples on the other hand resorted to complete unimerization upon exposure to GuHCl. As the Rh values for the crosslinked particles in GuHCl were generally larger than in PBS, the DLS data furthermore indicates a swelling behavior in the presence of the denaturing agent. This can most probably be attributed to the RLP core which is assumed to be completely collapsed in PBS but will however try to reach an elongated, random-coil morphology in the presence of GuHCl.
The first step of the characterization process was to produce crosslinked particles for the functionalized diblock constructs and to analyze whether the attachment of the ligands had caused any significant changes in particle size. […] Whatever the reason was, it had no effect on the crosslinking process as the particles still remained stable after GuHCl exposure.
Dynamic light scattering of cross-linkable protein nanoparticles was performed. […] However, these crosslinked particles remain assembled, actually growing slightly in size due to chain swelling of the core and corona in this new buffer. These novel scaffolds support various targeting domains and assemble into nearly identically sized nanoparticles between […] in hydrodynamic radius.

[4] = Critical assembly concentration (CAC) by DLS dilution series; type: physicochemical
Procedure: Lastly, we also wanted to determine the critical assembly concentration (CAC) of the individual constructs. The Rh values were measured with DLS over a dilution series from the mid-micromolar down to the low nanomolar range. […] Curiously, the mere introduction of crosslinking sites seems to dramatically decrease the CAC. Generally, the worm-forming constructs had lower CACs than their spherical analogues and so do pAzF-containing constructs in comparison to analogous pAzF-free polypeptides.

αvβ3 integrin, sequence (P06756 31-889 limits assumed): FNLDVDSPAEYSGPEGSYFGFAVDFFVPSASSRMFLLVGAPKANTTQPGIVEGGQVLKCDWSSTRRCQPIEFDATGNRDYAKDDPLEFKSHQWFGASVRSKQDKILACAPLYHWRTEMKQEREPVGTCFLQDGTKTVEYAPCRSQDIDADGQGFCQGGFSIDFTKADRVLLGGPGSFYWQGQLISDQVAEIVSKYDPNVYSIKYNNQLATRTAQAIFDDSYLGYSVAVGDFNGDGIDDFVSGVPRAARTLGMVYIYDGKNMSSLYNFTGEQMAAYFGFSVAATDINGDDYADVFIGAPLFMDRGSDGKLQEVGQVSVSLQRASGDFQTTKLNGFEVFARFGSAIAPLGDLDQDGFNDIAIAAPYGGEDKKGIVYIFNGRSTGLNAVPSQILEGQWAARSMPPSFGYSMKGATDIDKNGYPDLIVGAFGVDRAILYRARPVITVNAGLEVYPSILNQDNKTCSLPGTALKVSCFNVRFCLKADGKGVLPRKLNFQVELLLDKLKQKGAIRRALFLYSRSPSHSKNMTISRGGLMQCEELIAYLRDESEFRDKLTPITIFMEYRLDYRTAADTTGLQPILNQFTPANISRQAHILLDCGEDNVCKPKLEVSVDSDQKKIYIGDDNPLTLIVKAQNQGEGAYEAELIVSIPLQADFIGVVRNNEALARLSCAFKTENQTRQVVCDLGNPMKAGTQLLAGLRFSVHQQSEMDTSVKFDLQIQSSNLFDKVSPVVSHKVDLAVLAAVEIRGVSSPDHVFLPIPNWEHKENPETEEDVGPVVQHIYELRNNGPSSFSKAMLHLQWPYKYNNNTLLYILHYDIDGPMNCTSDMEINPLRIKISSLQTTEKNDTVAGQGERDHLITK
αvβ3 integrin, sequence (P06756 891-1048 partner limits assumed): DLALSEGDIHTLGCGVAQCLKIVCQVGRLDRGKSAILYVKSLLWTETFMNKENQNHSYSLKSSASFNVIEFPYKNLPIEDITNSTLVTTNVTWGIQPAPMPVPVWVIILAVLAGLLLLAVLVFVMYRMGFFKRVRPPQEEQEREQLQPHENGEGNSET
αvβ3 integrin, sequence (P05106 27-788): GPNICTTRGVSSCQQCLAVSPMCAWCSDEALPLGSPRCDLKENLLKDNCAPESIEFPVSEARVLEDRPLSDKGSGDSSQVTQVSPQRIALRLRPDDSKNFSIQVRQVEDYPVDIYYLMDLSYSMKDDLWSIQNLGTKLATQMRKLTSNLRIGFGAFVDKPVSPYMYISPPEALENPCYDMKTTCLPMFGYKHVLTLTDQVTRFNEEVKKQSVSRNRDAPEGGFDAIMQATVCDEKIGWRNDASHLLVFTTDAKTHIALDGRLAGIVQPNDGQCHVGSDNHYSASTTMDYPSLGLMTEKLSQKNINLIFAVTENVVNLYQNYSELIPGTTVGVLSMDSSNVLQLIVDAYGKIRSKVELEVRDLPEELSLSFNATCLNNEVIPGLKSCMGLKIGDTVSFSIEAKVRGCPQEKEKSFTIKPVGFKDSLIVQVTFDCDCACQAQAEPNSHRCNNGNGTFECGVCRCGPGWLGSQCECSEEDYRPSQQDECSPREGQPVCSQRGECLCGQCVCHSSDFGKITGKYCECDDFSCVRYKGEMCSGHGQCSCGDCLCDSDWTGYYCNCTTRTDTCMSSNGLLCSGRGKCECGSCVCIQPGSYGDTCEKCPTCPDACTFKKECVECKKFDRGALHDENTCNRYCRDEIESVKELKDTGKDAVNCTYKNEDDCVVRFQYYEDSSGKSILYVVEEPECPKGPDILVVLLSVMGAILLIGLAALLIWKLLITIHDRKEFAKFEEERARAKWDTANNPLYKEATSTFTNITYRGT

Kd [1]: 20 nM
Molecule: GRGDSPAS: UAA5-40-K8D4-ligand construct with integrin-targeting GRGDSPAS ligand (SEQ ID NO: 76)

Kd [2]: 0.25 nM
B1: Tn3: UAA5-40-K8D4-ligand construct with DR5-targeting Tn3 ligand (SEQ ID NO: 62) (protein)
chain: AIEVKDVTDTTALITWAKPWVDPPPLWGIELTYGIKDVPGDRTTIDLQQKHTAYSIGNLKPDTEYEVSLISFDPYGMRSKPAKETFTT

B2: UAA4-80: pAzF-containing worm-forming diblock construct (protein)
chain: QYPSDGRGQYPSDGRGQYPSDGRGQYPSDGRG[Phe(4-N3)]QYPSDGRGQYPSDGRGQYPSDGRGQYPSDGRG[Phe(4-N3)]QYPSDGRGQYPSDGRGQYPSDGRGQYPSDGRG[Phe(4-N3)]QYPSDGRGQYPSDGRGQYPSDGRGQYPSDGRG[Phe(4-N3)]QYPSDGRGQYPSDGRGQYPSDGRGQYPSDGRG[Phe(4-N3)]
RH (nm) ([3]; 15 μm in 7.2M GuHCl, crosslinked): 138.1 ± 12.5 nm | RH (nm) ([3]; 15 μm in 7.2M GuHCl, native (not crosslinked)): 7.4 ± 1.9 nm | RH (nm) ([3]; 15 μm in PBS, crosslinked): 86.2 ± 4.5 nm | RH (nm) ([3]; 15 μm in PBS, native (not crosslinked)): 55.7 ± 2.3 nm | CAC [4]: 30 to 50 nM

Reference: US20230093708A1, “PROTEIN NANOPARTICLE DESIGN AND APPLICATION” (Duke University, priority 2020, published 2023)
